This data set addresses SXR/RXR heterodimer (Homo sapiens, UniProt O75469;P19793 O75469:1-434,P19793:1-462). Put plainly: EMSA; mutations prevented heterodimer binding; 10 mM Tris pH 8, 100 mM KCl, poly dI:dC, room temp. Particulars: tags: TNT (Promega); SXR initiator Leu changed to Met. The protocol:
Electrophoretic mobility shift assays were performed using in vitro transcribed, translated proteins (TNT, Promega ). Proteins (1 μl each) were incubated for 20 minutes at room temperature with 100,000 cpm of Klenow-labeled probes in 10 mM Tris pH 8, 100 mM KCl, 6% glycerol, 0.05% NP-40, 1 mM dithiothreitol (DTT), 100 ng/μl poly dI:dC (Pharmacia, Piscataway, N.J.) and then electrophoresed through a 5% polyacrylamide gel in 0.5× TBE (45 mM Tris-base, 45 mM boric acid, 1 mM ethylenediaminetetraacetic acid (EDTA) at room temperature. For competition binding, protein plus unlabeled oligonucleotides at five or fifty fold molar excess were preincubated for ten minutes on ice, then labeled probes were added and incubated for 20 minutes at room temperature. Electrophoresis was as above. The IR series oligonucleotides tested had the following sequences: […]
Background: In EMSA bound probe runs differently from free probe, usually more slowly.

From US20030044888, “NOVEL STEROID-ACTIVATED NUCLEAR RECEPTORS AND USES THEREFOR” (published 2003) come the findings set out here.

Chain of SXR/RXR heterodimer (O75469 whole entry, chain 1 of 2): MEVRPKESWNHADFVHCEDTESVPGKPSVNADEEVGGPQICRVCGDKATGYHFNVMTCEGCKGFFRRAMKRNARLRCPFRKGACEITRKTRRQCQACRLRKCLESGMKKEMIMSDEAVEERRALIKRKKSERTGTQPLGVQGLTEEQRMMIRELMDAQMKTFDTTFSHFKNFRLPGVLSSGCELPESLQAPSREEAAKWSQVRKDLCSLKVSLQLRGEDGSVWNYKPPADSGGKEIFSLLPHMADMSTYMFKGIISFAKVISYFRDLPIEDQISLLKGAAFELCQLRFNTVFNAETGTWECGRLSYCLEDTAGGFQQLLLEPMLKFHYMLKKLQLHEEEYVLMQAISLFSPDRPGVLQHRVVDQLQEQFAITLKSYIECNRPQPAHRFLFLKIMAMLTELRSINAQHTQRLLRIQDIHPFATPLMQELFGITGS
Chain of SXR/RXR heterodimer (P19793 whole entry, chain 2 of 2): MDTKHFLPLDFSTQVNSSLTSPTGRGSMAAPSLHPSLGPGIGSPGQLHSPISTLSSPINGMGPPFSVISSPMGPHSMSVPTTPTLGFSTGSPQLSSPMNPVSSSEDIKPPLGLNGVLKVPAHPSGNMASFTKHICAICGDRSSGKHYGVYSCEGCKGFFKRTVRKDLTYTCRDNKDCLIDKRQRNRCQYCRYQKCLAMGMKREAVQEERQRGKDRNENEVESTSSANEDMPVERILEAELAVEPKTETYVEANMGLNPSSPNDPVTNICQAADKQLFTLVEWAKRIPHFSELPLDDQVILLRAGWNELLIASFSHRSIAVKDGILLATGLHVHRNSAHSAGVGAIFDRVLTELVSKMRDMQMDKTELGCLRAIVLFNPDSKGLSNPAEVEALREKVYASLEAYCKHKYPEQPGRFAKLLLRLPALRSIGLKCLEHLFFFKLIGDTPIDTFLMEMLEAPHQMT

B1: IR-M (dsDNA)
DNA 1: AGCTTACGTCATGACGTA
DNA 2: TACGTCATGACGTAAGCT
In the case of B1, the binding result is “no binding”.
